Laboratory results published in patent US20250325675A1, “APTAMER, CONJUGATE, COMPOSITION, METHOD FOR PREPARING SAME, AND USE THEREOF” (priority 2022, published 2025).
{MMAE} = monomethyl auristatin E payload; {Cy5} = cyanine 5 fluorescent dye

What was measured:
[1] = test system: U118MG glioma subcutaneous tumor; test: In vivo distribution in U118MG cell subcutaneous tumor model mice (Experimental Example 4); set-up: species or system NOD-SCID mice; details: 3 mg/kg tail vein injection; 1 h, 4 h, 24 h, 48 h after administration
Protocol: U118MG human glioma cells in the logarithmic growth phase were selected and digested (0.25% pancreatic enzyme).
The mice were further fed for 20 days after injection.
The mice inoculated with U118MG above were randomly divided into 3 groups (4 mice per group). For the 4 mice per group, the administration volume was calculated according to 10 μL/g body weight, and AP1, AP2 and comparative AP11 were respectively administered to different groups of mice by tail vein injection and designated as test group 4A1, test group 4A2 and control group 4A3. Thus, the administration dosage of each mouse was 3 mg/kg (based on aptamer). Another mouse inoculated with U118MG above was administered with 1×DMEM medium by tail vein injection (the administration volume was 10 μL/g body weight), and designated as blank control group 4Y.

[2] = test system: U118MG in situ brain glioma; test: In vivo distribution in U118MG cell tumor in situ model mice (Experimental Example 5); details: control groups 5C (intrathecal 100 μg) and 5F (tail vein 3 mg/kg); 24 h and 48 h
Protocol: U118MG human glioma cells in the logarithmic growth phase cultured as described in experimental Example 4 were selected and digested with 0.25% pancreatic enzyme. The cells were collected, the supernatant was aspirated, and then the cells were resuspended in DMEM medium supplemented with 10% FBS to be formulated into a cell culture solution with a cell density of 4×10^7 cells/mL.
Experimental animals were 16 NOD-SCID mice (male, 12 weeks old, purchased from SPF (Beijing) Biotechnology Co., LTD.). […]
AP1, AP2 and comparative AP11 were respectively dissolved into conjugate solutions with a concentration of 0.3 mg/mL (based on aptamer) with 1×DMEM medium. […] The administration dosage for all animals was calculated according to body weight, the administration volume was all 10 μL/g, and the administration dosage was 3 mg/kg per animal (based on the amount of aptamer). […]
At 24 h after administration, one mouse in each group was respectively euthanized and brain tissue was taken, and the remaining mice were euthanized at 48 h after administration and brain tissues were taken. The brain tissues of mice were taken for fluorescence imaging in IVIS Lumina Series III.

A549 subcutaneous tumors = test: In vivo activity in A549 subcutaneous tumor model mice (Experimental Example 25); details: 5 mg/kg (MMAE equivalent 0.3 mg/kg) D8, D12, D15, D19; 0.6 mg/kg MMAE equivalent D46, D50, D54; at each period of time
Protocol: According to the method of Experimental Example 4, 30 mice inoculated with A549 subcutaneous tumors were obtained, and were further fed after injection.
Conjugate 20 and conjugate 39 were dissolved into conjugate solutions with a concentration of 1 mg/mL (based on aptamer) with serum-free DMEM medium. Comparative conjugate 43 was dissolved into a conjugate solution with a concentration of 0.8 mg/mL (based on aptamer). MMAE was dissolved into a solution with a concentration of 0.06 mg/mL with 10% DMSO+90% serum-free DMEM medium (volume ratio).
7 days after the inoculation of A549 human lung cancer cells, all mice were divided into groups (6 mice each group), and each mouse was administered. The day of administration was designated as D8. The mice were weighed before administration, and the administration volume was calculated according to mouse body weight.
Each group of mice was administered once on D8, D12, D15, and D19, four times in total. […]
Tumor volumes were measured on D1, D9, D16, D19, D22, D26, D30, D36, D40, D43, D47, D50, D54, and D57, wherein the blank control group was measured on D54, and then the experiment was terminated.
The long diameters and short diameters of the tumors were measured in vitro. The tumor volume was calculated according to the equation ½ (long diameter×short diameter^2).

CY5-UfCfUfAUfGGCfUfGCfCfGAUfCfUfGGUfCfUfCfCfAUfGUfACfGUf (UCUAUGGCUGCCGAUCUGGUCUCCAUGUACGU; 2'-fluoro at CU, RNA at AG, 5' {Cy5}, backbone not given here) [comparative AP11, reference compound]
fluorescence signal in mice / at site of tumor inoculation [1]: substantially no or weak fluorescence signal
fluorescence signal at the tumor site, brain tissue [2]: no obvious fluorescence signal at the tumor site

MMAE-CmUmGmGmAmGmUmUmCmAmGmAmCmGmUmGmUmUmGmCmUmCmUmUmCmCmGmAmUmCmUmCm (CUGGAGUUCAGACGUGUUGCUCUUCCGAUCUC; all 2'-O-methyl, 5' {MMAE}, backbone not given here) [conjugate 20]
tumor volume versus control groups 25b (MMAE) and 25e (comparative conjugate 43) (A549 subcutaneous tumors): smaller than those of control groups 25b and 25e

MMAE-CmUmGmGmAmGmUmUmCmAmGmAmCmGmUmUmGmUmGmCmUmCmUmUm (CUGGAGUUCAGACGUUGUGCUCUU; all 2'-O-methyl, 5' {MMAE}, backbone not given here) [conjugate 39]
tumor volume versus control groups 25b (MMAE) and 25e (comparative conjugate 43) (A549 subcutaneous tumors): smaller than those of control groups 25b and 25e
